{
  "source": "patent US9791436B2",
  "about": "“Protease-based biosensor” (priority 2012, dated 2017)",
  "molecules": {"B1": {"name": "68-GP: thrombin-inducible autoinhibited TVMV biosensor, SEQ ID NO: 4 (protein)", "chain": "SSGSKALLKGVRDFNPISACVCLLENSSDGHSERLFGIGFGPYIIANQHLFRRNNGELTIKTMHGEFKVKNSTQLQMKPVEGRDIIVIKMAKDFPPFPQKLKFRQPTIKDRVCMVSTNFQQKSVSSLVSESSHIVHMRDTSFWQHWITTKDGQCGSPLVSIIDGNILGIHSLTHTTNGSNYFVEFPEKFVATYLDAADGWCKNWKFNADKISWGSFILWEDSGLVPRGVSGEGEYVRFGPGSTHHHHHH", "modifications": "protease construct"}, "B2": {"name": "68-AP: thrombin-inducible autoinhibited TVMV biosensor, SEQ ID NO: 5 (protein)", "chain": "B1 chain with G239A", "modifications": "protease construct"}, "B3": {"name": "H6-143: thrombin-inducible autoinhibited TVMV biosensor, SEQ ID NO: 6 (protein)", "chain": "SSGSKALLKGVRDFNPISACVCLLENSSDGHSERLFGIGFGPYIIANQHLFRRNNGELTIKTMHGEFKVKNSTQLQMKPVEGRDIIVIKMAKDFPPFPQKLKFRQPTIKDRVCMVSTNFQQKSVSSLVSESSHIVHKEDTSFWQHWITTKDGQCGSPLVSIIDGNILGIHSLTHTTNGSNYFVEFPEKFVATYLDAADGWCKNWKFNADKISWGSFYLYEDAPEDFMSGLVPRGVGREYVRFAPGSTHHHHHH", "modifications": "protease construct"}, "B4": {"name": "H6-68: thrombin-inducible autoinhibited TVMV biosensor, SEQ ID NO: 7 (protein)", "chain": "B3 chain with Y217I, Y219W", "modifications": "protease construct"}, "B5": {"name": "H6-AP: thrombin-inducible autoinhibited TVMV biosensor, SEQ ID NO: 1 (protein)", "chain": "B3 chain with Y217T, Y219V, Y239T", "modifications": "protease construct"}, "B6": {"name": "2B4-AP: thrombin-inducible autoinhibited TVMV biosensor, SEQ ID NO: 3 (protein)", "chain": "SSGSKALLKGVRDFNPISACVCLLENSSDGHSERLFGIGFGPYIIANQHLFRRNNGELTIKTMHGEFKVKNSTQLQMKPVEGRDIIVIKMAKDFPPFPQKLKFRQPTIKDRVCMVSTNFQQKSVSSLVSESSHIVHMRDTSFWQHWITTKDGQCGSPLVSIIDGNILGIHSLTHTTNGSNYFVEFPEKFVATYLDAADGWCKNWKFNADKISWGSFTLVEDAPSGLVPRGVSGEGETVRFAPGSTHHHHHH", "modifications": "protease construct"}, "B7": {"name": "2B4-GP: thrombin-inducible autoinhibited TVMV biosensor, SEQ ID NO: 2 (protein)", "chain": "B6 chain with A241G", "modifications": "protease construct"}, "B8": {"name": "SH3-TVMV-AC-AI-37-2: SH3-domain-tagged TVMV-based allosteric receptor, SEQ ID NO: 28 (protein)", "chain": "SGGSGAEYVRALFDFNGNDEEDLPFKKGDILRIRDKPEEQWWNAEDSEGKRGMIPVPYVEKYRPASASVSALIGGRGGSGGSGGSGGSGGSGGSSKALLKGVRDFNPISACVCLLENSSDGHSERLFGIGFGPYIIANQHLFRRNNGELTIKTMHGEFKVKNSTQLQMKPVEGRDIIVIKMAKDFPPFPQKLKFRQPTIKDRVCMVSTNFQQKSVSSLVSESSHIVHKEDTSFWQHWITTKDGQCGSPLVSIIDGNILGIHSLTHTTNGSNYFVEFPEKFVATYLDAADGWCKNWKFNADKISWGSFILWESGSPELGFSISGGVGGRGNPFRPDDDGIFVTRVQPEGPASKLLQPGDKIIQANGYSFINIEHGQAVSLLKTFQNTVELIIVREVGNGAKQEIRVRVEKDGGSGGGGVSSVPTNLEVVAATPTSLLISWDAYRELPVSYYRITYGETGGNSPVQEFTVPGSKSTATISGLKPGVDYTITVYAHYNYHYYSSPISINYRGPGREYVRFAPGSTHHHHHH", "modifications": "protease construct"}},
  "note": "Numbering of substitutions follows the chain as printed.",
  "data": [
    {"molecular_target": "T1, bovine thrombin (Bos taurus, UniProt P00735)", "T1 construct": "addition of bovine thrombin (1 U per 200 μL)", "assay": "Thrombin induction of autoinhibited TVMV-based biosensor protease activity (quenched fluorescent TVMV substrate)", "type": "biochemical", "details": "biosensor 1 μM, 10 μM protease substrate, presence vs absence of bovine thrombin (1 U per 200 μL)", "procedure": "Libraries of autoinhibited TVMV mutants were transformed into chemically competent BL21(DE3)-RIL cells hosting the autolysis plasmid 05665 (FIG. 2A) and plated onto LB agar plates supplemented with 100 μg/mL carbenicillin, 50 μg/mL kanamycin and 34 μg/mL chloramphenicol. Following overnight incubation at 37° C., single colonies were inoculated into 96 deep-well plates filled with minimal auto-induction medium (1 mL) which was supplemented with 100 μg/mL carbenicillin, 50 μg/mL kanamycin and 34 μg/mL chloramphenicol. Cells were left to grow for 72 h at 30° C. at 320 rpm and typically reached OD values of approximately 10. To lyse cells, aliquots of cell cultures (100 μL) from half a 96-well-plate (48 samples) were diluted two-fold into autolysis medium (100 μL) and left to incubate for 90 min at 30° C. at 200 rpm. Aliquots of cell lysates (10 μL) were duplicated after transferring them into separate halves of a black 96-well-plate filled with protease assay buffer (140 μL). One of the halves additionally contained 1 U thrombin in order to cleave the linker connecting TVMV to its autoinhibition domain and relieve autoinhibtion. The reaction was initiated following the addition of substrate solution (50 μL) which gave rise to 10 μM TVMV substrate peptide in the final reaction. The reaction was monitored using a fluorometer (Biotek Synergy 4) by measuring the release of a quenched fluorophore (7-Methoxycoumarinyl-4-acetyl) at 405 nm following excitation at 330 nm. The induction of TVMV-based protease activities was evaluated by comparing the time course of the reactions in the presence and absence of thrombin. The plasmids encoding for desirable mutants were subsequently isolated from single colonies and their identity confirmed by Sanger sequencing.\nTo measure induction ratios under saturating reaction conditions, TVMV- and HCV-based signal transducers (5 μg) were pre-incubated for 10 min in 150 μL protease assay buffer (50 mM Tris-HCl, 1 mM DTT and 0.5 mM EDTA, pH 8.0 for TVMV, and 50 mM Tris-HCl, 50 mM NaCl and 1 mM DTT, pH 8.0 for HCV) in the presence and absence of the inducing protease: i.e. 1 U thrombin, 1 U Factor Xa, 5 μg PSA, 1 μg MMP-7 and 1 μg for MMP-9 for TVMV-based signal transducers as indicated, and 5 μg TVMV for HCV-based signal transducers. The reaction was initiated following the addition of 50 μL substrate solution that contained 40 μM peptide substrate and gave rise to 10 μM peptide substrate in a final reaction volume of 200 μL. The reaction was monitored using a fluorometer (Biotek Synergy 4) by measuring the release of 7-Methoxycoumarinyl-4-acetyl from the quenched substrate peptide at 405 nm following excitation at 330 nm. The induction ratio of TVMV-based protease activities in the inhibited and uninhibited state was evaluated by comparing the reaction in the presence and absence of the activating protease. Activity traces labelled as ‘Background’ generally denote control samples that contain peptide substrate, but no enzyme.\nThe biosensor (1 μM) was incubated together with 10 μM protease substrate in 50 mM Tris-HCl, 1 mM DTT and 0.5 mM EDTA. Relief of autoinhibition was achieved upon addition of bovine thrombin (1 U per 200 μL).", "values": [
      {"molecule": "B1", "Fold Induction": "~60 fold"},
      {"molecule": "B2", "Fold Induction": "~100 fold"},
      {"molecule": "B3", "Fold Induction": "~60 fold"},
      {"molecule": "B4", "Fold Induction": "~150-200 fold"},
      {"molecule": "B5", "Fold Induction": "~50 fold"},
      {"molecule": "B6", "Fold Induction": "~25 fold"},
      {"molecule": "B7", "Fold Induction": "~17 fold"}
    ]},
    {"molecular_target": "T2, PDZ ligand peptide-1 (RGSIDTWV) (Homo sapiens, UniProt Q96RT1)", "T2 construct": "made in house; host or cells: E. coli BL21(DE3)-RIL", "assay": "Protease signalling cascade: SH3-tagged TVMV-based allosteric receptor coupled to HCV-based signal amplifier, ligand titration", "type": "biochemical", "details": "not given", "procedure": "(§1) Signalling cascades consisting of SH3-domain-tagged TVMV-based allosteric receptors (10 nM) and SH3-peptide-tagged TVMV-inducible HCV-based signal transducers (200 nM) were measured in protease assay buffer consisting of 50 mM Tris-HCl, 200 mM NaCl and 1 mM DTT, pH 8.0. The reaction was strictly initiated by simultaneously adding the TVMV-based allosteric receptor and HCV substrate peptide to a final concentration of 10 μM along with the PDZ ligand peptide-1 ([…]) at a final concentration of 10 μM. To determine the KD of TVMV-based allosteric receptors, the PDZ ligand peptide-1 ([…]) was suitably diluted over a concentration range from 2 nM to 400 nM as indicated in FIG. 13B. To determine the KD, initial rates were plotted against ligand concentrations and the fitted values analysed by non-linear regression assuming a one-site specific binding model (GraphPad Prism 5).", "units": {"improvement of the sensitivity of the assay": "fold"}, "values": [
      {"molecule": "B8", "improvement of the sensitivity of the assay": 20}
    ]},
    {"molecular_target": "T2, PDZ ligand peptide-1 (RGSIDTWV)", "assay": "Protease signalling cascade: SH3-tagged TVMV-based allosteric receptor coupled to HCV-based signal amplifier, ligand titration", "type": "biochemical", "details": "FIG. 13B", "procedure": "as §1", "units": {"concentration of receptor faithfully detected": "nM"}, "values": [
      {"molecule": "B8", "concentration of receptor faithfully detected": 5}
    ]}
  ]
}
